Measurements: the nanobody polyreactivity screen of Harvey et al. (2022)

Assay: yeast display, Sf9 membrane polyspecificity reagent, FACS + sequencing; frameworks hold sequencing errors
Summary of the method: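 Nanobodies came from a synthetic yeast display library in Saccharomyces cerevisiae BJ5465, induced with galactose for 36–48 hours and stained for 1 hour at 4 °C with 10% biotinylated, detergent-solubilized Sf9 membrane reagent. Cells were enriched on streptavidin microbeads and then FACS-sorted, with low and high (top ~1%) gates set on anti-HA fluorescence for expression and streptavidin fluorescence for reagent binding. Each polyreactivity label reflects the gate a clone came from. Genes were amplified by colony PCR, sequenced by MiSeq 2 × 250 and filtered by CDR length.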

| Sequence | polyreactivity (PSR sort gate) |
| --- | --- |
| QVQLVESGGGLVQAGGSLRLSCAASGRTFTHYDMGWYRQAPGKERELVAAISSGCGTYYADSVKGRFTISRDNAKNTVYLQMNSLKPEDTAVYYCNADYTNYHDPFRTYGYWGQGTQVTVSS | low polyreactivity |
| QVQLVESGGGLVQAGGSLRLSCAASGRTFNYYAMGWYRQAPGKERELVAAISSRGGTYYADSVKGRFTISRDNAKNTVYLQMNSLKPEDTAVYYCNAVHYDTISDYWGQGTQVTVSS | high polyreactivity |
| QDQLVESGGGLVQAGGSLRLSCAAYGYTFPWYAMGWYRQAPGKERELVAAISDTGTTNYADSVKGRFTISRDNAKNTVYLQMNSLKPEDTAVYYCNAKVTSYWYYPFNYWGQGTQVTVSS | low polyreactivity |
| HLQLVESGGGLVQAGGSLRLSCAPSGRILRDYDMGWYRQAPGKERELVAAINWSDGSTYYADSVKGRFTISRDNAKNTVYLQMNSLKPDDTAVFYCAASRWRPLERGTSWLHDYWGQGTQVTVSS | low polyreactivity |
| QVQLEESGGGLVQAGGSLRLSCAASGRIFAGYAMGWYRQEPGKERELVAAINGSGADTYYADSVKGRFTISRDNAKNTVYLQMNSLKPEDTAVYYCAASPGSQYTGYDYWGQGTQVTVSS | low polyreactivity |
| QVQLVESGGGLVQAGGSLRLRCAASGFTFGAYAMGWYRQAPGKERELVATIDWRGSSTYYADSVKGRFTISRDNAKNTVYLQMNSLKPEDTAVYYCAARLARGSYAYEYWGQGTQVTVSS | low polyreactivity |
| QVQLVESGGGLVQAGGSLRLSCAASGFIFRWNAMGWYRQAPGKERELVAAITSGGGTNYADSVKGRFTISRDNAKNTVYLQMNSLKPEDTAVYYCNASYRRYSNYYKYGYWGQGTQVTVSS | high polyreactivity |
| QVQLVESGGCLVQAGGSLRLSCAASGSIFSAYAMGWYRQAPGKERELVAGITSSGDSTYYADSVKGRFTISRDKAKNTVYLQMNSLKPEDTAVYYCNRVLGGVPFDHWGQGTQVTVSS | low polyreactivity |
| QVQLVESGGGLVQAGGSLRLSCAASGLIFYKYAMGWYRQAPGKERELVAAIRWSGGSTYYADSVKGRFTISRDNAKNTVYLQMNSLKPEDTAVYYCAALSWNHQYEYWGQGTQVTVSS | high polyreactivity |
| QVQLVESGGGLVQAGGSLRLSCAASGRIFKYNAMGWYRQATGKERELVAAISSSGGSTYYADSVKGRFTISRDNANNTVYLQMNSLKPEDTAVYYCAARYNSRVYRYDYWGQGTQVTVSS | high polyreactivity |
| QVQLVESGGGLVQAGGSLRLSCAASGRIFHGYAMGWYRQAPGKERELVAAISSGGRTNYADSVKGRFTISRDNAKNTVYLQMNSLKPEDTAVYYCAAETQWYVRSRTLFYRYDYWGQGTQVTVSS | high polyreactivity |
| QVQLVESRGGLVQAGGSLRLTCAASGSTFTHYAMGWYRQAPGKERELVAAISSGGGSTYYADSVKGRFTISRDNAKNTVYVQMNSLKPEDTAVYYCAVRSQFRAWRFYYWGQGTQVNVSS | high polyreactivity |
| QVQLVESGGGLVQAGGSLRLSCAASGRTFSIYAMGWYRQAPGKERELVAAISNGGRTKYADSVKGRFTISRDNAKNTVYLQMNSLKPEDTAVYYCAASRPRPPSSRRMDYWGQGTQVTVSS | high polyreactivity |
| QVQLVESGGGLVQAGGSLRLSCAASGLNFDKNAMGWYRQAPGNERELLAAITRSSGTTYYADSVKGRFTISRDNAKNTVYLQMNSLKPEDTAVYYCAARFIWGYWGVGYYSWGQGTQVTVSS | low polyreactivity |
| QVQLVESGGGLVQAGGSLRLRCAASGRTFSSNAMGWYRQAPGKERELVASISRRGGSTYYADSVKGRFTISRDNAKNSVYVQMNSLKPEDTAVYDCAARQSGQILGYYSRYDYWGQGTQVTVSS | high polyreactivity |
| QVQLVESGGGLVQAGGSLRLSCAASGRIFHYYMGWYRQAPGKERELVAVISSGDGTYYADSVKGRFTISRDNAKNTVYLQMNSLKPEDTAVYYCAADAPREYVDHYKYDDDYWGQGTQVNVSS | low polyreactivity |
| QVQLVESGGGLVQAGGSLRLSCAASGSIFGYNAMGWYRQAPGKDREFVAAIRWSSGSTYYADSVKGRFTISRDNAKNTVYLQMNSLKPEDTAVYYCATRQTYLYWGQGTQVTVSS | high polyreactivity |
| QVQLVESVGGLVQAGGSLRLSCAASGSIFRVYAMGWYRQAPGKERELVATISGSAGRTYYADSVKGRFTISRDNAKNTVYLQMNSLKPEDTAVYYCAARWYKEYYWGQGTQVTVSS | high polyreactivity |
| QVQLVESGGGLFQEGGSLRLSCAPSGSTLVFYAMGWYRHAPGKERELVAAITRSGGSTYYADSVKGRFTISRDNAKNTVYLQRNSLKPEDTAVYNCAADERYINERVSWGQGTQVTVSS | low polyreactivity |
| QVQIVESGGGLVQAGGSLRLSCAASGFTIPPYTMGWYRQAPRKEREFVATITASGGSTYYADSVKGRFTISRDNAKNTVYLQMNSLNPEDTAVYYCNADYYSLYFFAWYRTNDFWGQGTQVTVSS | low polyreactivity |
| QVQLLESGGGLVQAGGSLRLSCAASGFTLTRNAMGWYRQAPGKEREFVAAISWSGGSTYADSVKGRFTISRDNAKNTVFLQMNSLKPEDTAVYYCAADRYNGRYGYWGQGTQVTVSS | high polyreactivity |
| QVQLVESGGGLVQAGGSLRLSCAASGITFYDNVMGWYRQAPGKERELVAAITSGGSTNYADSVKGRFTISRDNAKNTVYLQMNSLKPEDTAVYYCAAQTRVDYEFPYRYGYWGQGTQVTVSS | low polyreactivity |

| Sequence | polyreactivity (PSR sort gate) |
| --- | --- |
| QDQHVETGGRLVHAGCSLRISCAASGSTFTGYAMGWNRPPPGKERELVAAISSGGSTYYADSVKGRFTISRDNPKNTVYLQMNSLTPEDTAVYDCAAAPRWKASRLYYWGQCTQVTVSS | high polyreactivity |
| QVQLVESGGGLVQAGGSLRLTCAASGRIIKLYAMGWYRQAPGKETEFVAAITWSGGRTYYADSVKGRFTISRDNAKNTVYLQMNSLTPEDTAVYSCAAYDTYDWYDYWGQGTQVTVSS | high polyreactivity |
| QVQLVESGGGLVQAGGSLRLSCAASGYYAMGWYRQAPGKERELVAAITWSGGTTYYADSVKGRFTISRDNAKNTVYLQMNSLKPEDTAVYYCNADFVRYTRHKKYYYWGQGTQVTVSS | low polyreactivity |
| QVQLVESGGGLVQAGGSLRLSCAASGLTFRWYAMGWYRQAPGKERELVAAISSTGRTNYADSVKGRFTISRDNAKNTVYLQMNSLKPEDTAVYYCNKTQEFVHKYELDYWGQGTQVTVSS | low polyreactivity |
| QVQLVESGGGLVQAGGSLRLSCAASGSTFPGYAMGWYRQAPGKDRELVAAISKRGGSTRYADSVKGRFTISRDKAKNTVYLQMNSLKPEDTAVYYCNAVYTKRYKYYYTSGYWGQGTQVTVSS | high polyreactivity |
| QVQLVESGGGLVQAGGSLRLSCAASGFTFYINVMGWYRQATGKERELVAAITSSGTTNYADSVKGRFTISRDNAKNTVYLQMNSLKPEDTAVYYCAKRSYGGTLHYAFDSWGQGTQVTVSS | low polyreactivity |
| QVQLVESGGGLVQAGGSLRLSCAASGRTFTIYAMGWYRQAPGKEREFVASITGSDGSTYYADSVKGRFTISRDNAKNTVYLQMNSLKPEDTAVYYCAAKRYVYPSYRFDYWGQGTQVTVSS | low polyreactivity |
| QVQLVESGGGLVQAGGSLRLSCAASGRIFGGYAMGWYRQAPGKERELVPSITGRATSTYYADSVKGRFTISRDNAKNTVYLQMNRLKPEDTAVYYFNALYRKYRNQWYISNYGYYYWGQGTQVTVSS | low polyreactivity |
| QVQLVESGGGLVQAGGSLRLSCAASGRTFGVNAMGWYRQAPGKERELVASISNKGSTYYADSVKGRFTISRDNAKNTVYLQMNSLKPEDTAVYYCAADEYWSWDGTRYGVHYYYWGQGTQVTVSS | low polyreactivity |
| QVQLVESGGGLVQAGGSLRLRCAASGSTSWSNPMGWYRQAPGKERELVAAITTGASTYYADSVKGRFTISRDNAKNTVYLQMNSLKPEDTAVYYCAADPWVLWSYYYWGQGTQVTVSS | low polyreactivity |
| QVQLLESGGGFVQEGGSLRLICAASGLTFYYNAMGWYRQAPGTERELVAAISFSGGRTYYADSVKGRFTISRDNAQNTVYLQMNSLKPEDTAVYYCAARVPRYRKDSVWAYYYWGQGTQVTVSS | high polyreactivity |
| QDQHVESGGGLVQAGGSLRLSCAASGSTFRYYAMGWYRQRPGKESEMVAAITRRGGSTYYADSVKGRFTISRDNAKYTVYLQMNSLKQADTAVYYCAAYRIYYSGYGYYYYWGQGTQVTVSS | high polyreactivity |
| QVQLVESGGGLVQAGGSLRLSCAASGGTFPSNAMGWYRQAPGQERELVAAITGSSDTTYYADSVKGRFTISRDNAKNTVYLQMNSLKPEDTAVYYCAADTPRDTNRYEYWGQGTQVTVSS | low polyreactivity |
| QVQLVESGGGLVQARGSLRLSCAASGLTFRWYSMGWYRQAPGKERELVAAISSGGRTYYADSVKGRFTISRDNAKNTVYLQMNSLKPEDTAVYYCSKRTLDYGFGSYGREYWGEGTQVTVSS | high polyreactivity |
| QVQLVESGGGLVQAGGSLRLSCAASGFTFRRNAMGWYRQAPGKERELVAVITTAGSTNYADSVKGRFTISRDNAKNTVYLQMTSLKPEDTAVYYCATDNGTRKRRYDYWGQGTQVNVSS | low polyreactivity |
| QVQLVESGGGLVQAGGSLRLSCAASGSTFRVNAMGWYRQAPGKEREFVATIRGGGVRTYYADSVKGRFTISRDNAKNTVYLQMNSLKPEDTAVYYCNRKFYWRRDYWGQGTQVTVSS | high polyreactivity |
| QVQLVESGGGLVQAGGSLRLSCAASGLTFLDYDMGWYRQAPGKERELVADIDWSGGNTYYADSVKGRFTISRDNAKNTVYLQMNSLKPEDTAVYYCNTVTEAVTRRYDYWGQGTQVTVSS | low polyreactivity |
| QVQLVESGGGLVQAGGSLRLSCAASGLTFDPYAMGWYRQAPGKEREFVATITTSGDSTYYADSVKGRFTISRDNAKNTVYLQMNSLTPEDTAVYYCNTQSRTLGWPLDYWGQGTQVTVSS | high polyreactivity |
| QVQLVESGGGLVQAGGSLRLSCAASGFIFYGNAMGWYRQAPGKERELVATISDGGSTNYADSVKGRFTISRDNAKNTVYFQMNSLKPEDTAVYYCATEYYTPVRGYGYWGQGTQVTVSS | low polyreactivity |
| QVQLVESGGGLVQAGGSLRLSCAASGSTFATYTMGWYRQAPGKERELVAAISSRGGSTYYADSVKGRFTISRDNAKNTGYLQMNSLKPEDTAVYYCNARRSTDPARYYWGQGSQVTVSS | high polyreactivity |
| QVQLEESGGGLVQAGGSLRLSCAASGFISIPYAMGWYRQAPGKERELVASITRSGGNTYYADSVKGRFTISRDNAKNTVYLQMNSLKPEDTAVYYCNVVVYRWSPVSKLDYWGQGTQVTVSS | high polyreactivity |
